The record followed here is patent publication US20210132079A1, “ANTIBODY” (UCB Biopharma SRL, priority 2015, published 2021).

One may read the Kd as the equilibrium constant for the complex coming apart.

Assay [1] deals with T1, Human TNFα (Homo sapiens, UniProt P01375). The assay can be described thus: BIAcore surface plasmon resonance, captured IgG, human TNFα +/− test compound. More on the design: Soluble form of human TNFα; made in house. It is filed as binding. How it is done:
(§1) Surface plasmon resonance was performed at 25° C. using a BIAcore T200 (GE Healthcare). Anti-Mouse Fc (Jackson 115-006-071) was immobilised on a […] Sensor Chip (GE Healthcare) via amine coupling chemistry to a capture level of 6000 response units. HBS-EP buffer (10 mM HEPES pH 7.4, 0.15 M NaCl, 3 mM EDTA, 0.05% (v/v) surfactant P20—GE Healthcare)+1% DMSO was used as the running buffer.
(§2) The surface was regenerated at a flow-rate of […] by a 60 s injection of 40 mM HCl×2 and a 30 s 5 mM NaOH. Double referenced background subtracted binding curves were analysed using the T200 Evaluation software (version 1.0) following standard procedures. Kinetic parameters were determined from the fitting algorithm.
Target sequence in this assay (P01375 with tags, fused parts or gaps): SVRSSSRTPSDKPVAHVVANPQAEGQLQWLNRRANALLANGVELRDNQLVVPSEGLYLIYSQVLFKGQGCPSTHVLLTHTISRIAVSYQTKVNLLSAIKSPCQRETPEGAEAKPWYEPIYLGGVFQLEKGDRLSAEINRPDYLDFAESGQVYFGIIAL

Assay [2] concerns the target T2, Mouse TNFα (Mus musculus, UniProt P06804).
T2 construct: made in house
T2 sequence (P06804 80-235 limits assumed): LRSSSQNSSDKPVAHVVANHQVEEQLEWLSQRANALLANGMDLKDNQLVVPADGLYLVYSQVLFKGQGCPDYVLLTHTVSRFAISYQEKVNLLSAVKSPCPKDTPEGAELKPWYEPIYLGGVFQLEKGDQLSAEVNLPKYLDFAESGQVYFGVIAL
Description: BIAcore surface plasmon resonance, captured IgG, mouse TNFα +/− test compound. It is filed as binding. How it is done: as §1, §2
A general note: Surface plasmon resonance follows binding to a sensor surface in real time, without labels.

For assay [3], the system named is membrane TNFα. Description: FACS assay with engineered NS0 cell line overexpressing membrane TNFα. Conditions: Fab fragments; NS0 cells incubated with compound (1) or DMSO control. The assay is classed as cell-based. How it is done: An engineered NS0 cell line, which overexpresses membrane TNFα, due to knock-out of the TACE cleavage site was incubated with 0.001-10 μM compound (1) or 0.1% DMSO for 1 h at 37° C. Cells were washed, fixed and stained with antibody Fab fragments at 0.01 or 0.1 μg/ml for 1 hour on ice. (Secondary antibody was anti-mouse Fab-DyeLight488 from Jackson ImmunoResearch).
There is no staining with the DMSO controls.
On the technique in general: A flow cytometer gives signals particle by particle.

Assay [4] deals with human TNFα complexed with compound (1) (Homo sapiens, UniProt P01375). The assay can be described thus: Size exclusion chromatography (HPLC) of mouse Fab with TNFα-compound complex. It is filed as binding. Conditions: Fab at 0.5×-2× molar excess. For orientation: Size exclusion chromatography separates by hydrodynamic size, large species first.
Assay [5] concerns the target T1, Human TNFα. The assay can be described thus: FACS assay with HEK Jumpin cells overexpressing TNF-RI, receptor-bound TNFα. It is filed as cell-based. More on the design: host or cells: HEK Jumpin cells (carry the TNF-RI. Conditions: antibody at 1 and 10 μg/ml; TNFα pre-incubated with compound (1) or DMSO control. How it is done:
HEK cells were trypsinised and incubated for 2 h in medium to allow recovery of digested TNFRI levels.
Target sequence in this assay (P01375 77-233 limits assumed): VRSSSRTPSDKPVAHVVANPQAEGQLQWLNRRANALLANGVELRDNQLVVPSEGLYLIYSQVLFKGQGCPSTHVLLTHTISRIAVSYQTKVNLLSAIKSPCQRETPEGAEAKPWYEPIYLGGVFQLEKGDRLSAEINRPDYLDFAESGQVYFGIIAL
Target sequence in this assay (P19438 22-455 partner limits assumed): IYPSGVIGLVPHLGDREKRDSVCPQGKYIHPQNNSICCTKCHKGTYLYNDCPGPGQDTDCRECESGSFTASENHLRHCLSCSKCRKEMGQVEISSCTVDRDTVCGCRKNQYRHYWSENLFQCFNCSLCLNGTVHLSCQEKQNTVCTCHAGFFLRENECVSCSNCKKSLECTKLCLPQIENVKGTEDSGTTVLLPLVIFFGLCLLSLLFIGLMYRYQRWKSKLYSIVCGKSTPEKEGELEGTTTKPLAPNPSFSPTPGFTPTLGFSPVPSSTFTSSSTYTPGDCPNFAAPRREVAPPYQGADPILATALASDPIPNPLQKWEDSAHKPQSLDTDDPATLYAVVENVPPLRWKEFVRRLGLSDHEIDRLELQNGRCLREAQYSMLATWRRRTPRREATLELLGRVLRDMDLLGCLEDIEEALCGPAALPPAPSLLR

Chain of human TNFα complexed with compound (1) (P01375 77-233 limits assumed, one chain of several): as the sequence (P01375 77-233 limits assumed) above
Chain of membrane TNFα (P01375 89-233 limits assumed): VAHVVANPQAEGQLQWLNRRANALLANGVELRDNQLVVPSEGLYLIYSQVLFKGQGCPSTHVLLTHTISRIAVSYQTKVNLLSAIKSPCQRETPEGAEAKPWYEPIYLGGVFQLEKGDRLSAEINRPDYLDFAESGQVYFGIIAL

B1: CA185_01979: rat-derived conformation-selective antibody to compound-bound TNFα; LCVR SEQ ID NO: 22, HCVR SEQ ID NO: 23 (antibody, V domains shown)
VH: EVHLVESGPGLVKPSQSLSLTCSVTGYSITNSYWDWIRKFPGNKMEWMGYINYSGSTGYNPSLKSRISISRDTSNNQFFLQLNSITTEDTATYYCARGTYGYNAYHFDYWGRGVMVTVSS
VL: DIQMTQSPASLSASLEEIVTITCQASQDIGNWLSWYQQKPGKSPHLLIYGTTSLADGVPSRFSGSRSGTQYSLKISGLQVADIGIYVCLQAYSTPFTFGSGTKLEIK
modifications: HCVR of 1979; DIQMTQSPASLSASLEEIVTITCQASQDIGNWLSWYQQKPGKSPHLLIYGTTSLADGVPSRFSGS RSGTQYSLKISGLQVADIGIYVCLQAYSTPFTFGSGTKLEIK
For the molecule B1, the ka in assay [1] (Human TNFα + compound (1)) is 470000 M⁻¹ s⁻¹; in assay [1] (Human TNFα + compound (2)), 570000 M⁻¹ s⁻¹; in assay [1] (Human TNFα apo), 110000 M⁻¹ s⁻¹; in assay [2] (Mouse TNFα + compound (1)), 160000 M⁻¹ s⁻¹; in assay [2] (Mouse TNFα + compound (2)), 190000 M⁻¹ s⁻¹; in assay [2] (Mouse TNFα apo), 72000 M⁻¹ s⁻¹. Also, the kd in assay [1] (Human TNFα + compound (1)) was 1.6e-05 s⁻¹; in assay [1] (Human TNFα + compound (2)), 3.3e-05 s⁻¹; in assay [1] (Human TNFα apo), 0.00071 s⁻¹; in assay [2] (Mouse TNFα + compound (1)) it was 6.3e-05 s⁻¹; in assay [2] (Mouse TNFα + compound (2)), 3.5e-05 s⁻¹; in assay [2] (Mouse TNFα apo), 0.002 s⁻¹. In addition, the results for the Kd in assay [2] (Mouse TNFα + compound (1)) and in assay [2] (Mouse TNFα apo) were 0.38 nM and 27 nM, respectively. For the same molecule, the “FACS staining of membrane-bound TNFα” value in assay [3] is listed as “only recognise TNF which has been pre-incubated with compound (1)”. In assay [4], the “stoichiometry of Fab binding to TNFα trimer” value was 1 Fab: 1 TNFα trimer. Further, in assay [5], the “FACS staining of receptor-bound TNFα” value is on record as “only recognise TNFα which has been pre-incubated with compound (1)”.
